From the supplement of paper PMC10567573

B1: TMEM106C (parent)
chain: SEQLVNFTGKAEMGGPFSYVYFFC

Variants of: B1
Experiment: protein stability index of a GFP-peptide fusion (GPS, HEK-293T) (PSI 1-6); higher = more stable
Conditions: c terminus: a fixed tail appended
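Note: lentivirally expressed fusions sorted by FACS into six bins by GFP to DsRed ratio, PSI derived from sequencing read proportions per bin multiplied by bin number.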

Protein stability index: each site, then its substitutions
V20: Y 2.53 | F 2.17 | Q 2.65 | K 1.55 | G 2.35 | S 2.56 | W 1.79 | L 2.07 | P 1.98 | M 2.65 | H 2.53 | T 2.77 | N 2.69 | R 1.68 | I 2.7
Y21: K 2.06 | A 3.06 | L 3.93 | F 3.1 | C 2.42 | D 1.89 | T 3.31 | G 1.84 | P 1.49 | N 2.82 | E 1.42 | R 1.49 | M 3.64 | Q 2.15 | H 2.26 | S 2.44 | V 3.6
F23: L 2.08 | Q 2.9 | V 3.22 | P 1.51 | E 2.15 | H 2.28 | R 4.48 | W 3.85 | Y 3.3 | A 2.45 | S 3.45 | N 1.35 | K 1.79 | D 1.56 | I 2.42 | T 2.05 | C 2.54 | G 3.03
F22: D 2.33 | H 3.04 | W 2.21 | V 3.27 | E 1.88 | N 1.79 | T 3.71 | I 1.96 | G 2.86 | Q 2.07 | R 2.28 | K 1.84 | A 2.62 | S 2.12 | C 2.58 | P 2.06 | Y 2.78 | M 3.04
C24: K 2.07 | F 3.13 | A 3.11 | T 3.96 | V 3.49 | D 2.36 | I 3.26 | G 2.53 | H 3.25 | Y 3.05 | E 2.29 | W 3.35 | N 1.89 | R 2.09 | P 1.73 | S 2.23 | M 2.82 | Q 1.54
